± gives the uncertainty stated by the source.
B1: RNA-binding E3 ubiquitin-protein ligase MEX3C, residues 325 to 391; numbered along this chain, Q5U5Q3 (parent)
chain: GQTTVQVRVPYRVVGLVVGPKGATIKRIQQQTHTYIVTPSRDKEPVFEVTGMPENVDRAREEIEMHI

Variants of: B1
Test: abundance fitness (aPCA) (normalised: wild type 0, dead -1); higher = more abundant; growth selection in yeast, the domain comes from the species named
Conditions: Homo sapiens

Abundance fitness, by site and new letter:
Q31: P -0.65 ± 0.21, M 0.048 ± 0.07, F -0.452 ± 0.47, G -0.57 ± 0.071, T -0.261 ± 0.085, C -0.69 ± 0.23, S -0.319 ± 0.088, A -0.272 ± 0.092, E 0.252 ± 0.079, V -0.109 ± 0.07, L -0.128 ± 0.068, I -0.18 ± 0.17, D -0.001 ± 0.13, N -0.048 ± 0.11, W -0.966 ± 0.22, K 0.035 ± 0.11, R 0.036 ± 0.04
T38: A -0.015 ± 0.064, H -0.587 ± 0.46, G 0.005 ± 0.047, I -0.177 ± 0.22, Y 0.017 ± 0.28, W -0.384 ± 0.081, R -0.403 ± 0.07, C 0.005 ± 0.076, S -0.01 ± 0.072, N -0.347 ± 0.23, F -0.516 ± 0.28, K -0.333 ± 0.2, V -0.174 ± 0.094, M -0.271 ± 0.15, L -0.268 ± 0.09, P -0.046 ± 0.11, D -0.275 ± 0.32
R41: A 0.017 ± 0.056, E -0.021 ± 0.074, P 0.071 ± 0.094, N -0.058 ± 0.16, C -0.067 ± 0.082, L -0.21 ± 0.06, H -0.109 ± 0.14, W -0.245 ± 0.073, K 0.019 ± 0.15, F -0.343 ± 0.17, Y -0.212 ± 0.28, S -0.047 ± 0.062, T -0.021 ± 0.083, G -0.154 ± 0.037, V -0.088 ± 0.063, I -0.15 ± 0.17, D 0.048 ± 0.11, M -0.168 ± 0.078
I25: T -0.75 ± 0.34, E -0.786 ± 0.14, M -0.571 ± 0.13, G -0.68 ± 0.062, H -0.62 ± 0.2, F -0.905 ± 0.31, P -0.64 ± 0.35, L -0.165 ± 0.081, K -0.754 ± 0.21, R -0.39 ± 0.069, Y -0.502 ± 0.27
K26: Q -0.343 ± 0.14, D -0.417 ± 0.15, R -0.126 ± 0.054, T -0.61 ± 0.14, G -0.769 ± 0.1, Y -0.944 ± 0.34, P -0.56 ± 0.14, C -0.911 ± 0.34, M -0.212 ± 0.15, H -0.66 ± 0.22, A -0.119 ± 0.06, F -0.786 ± 0.27, S -0.483 ± 0.14, W -0.722 ± 0.12, L -0.655 ± 0.11, V -0.747 ± 0.11, N -0.491 ± 0.15
I36: R -0.715 ± 0.079, F -0.941 ± 0.31, W -0.736 ± 0.12
